Data reported in the Human Domainome abundance scans (Beltran et al. 2025).
± gives the uncertainty stated by the source.

B1: Segment polarity protein dishevelled homolog DVL-3, residues 2 to 81; numbered along this chain, Q92997 (parent)
chain: GETKIIYHLDGQETPYLVKLPLPAERVTLADFKGVLQRPSYKFFFKSMDDDFGVVKEEISDDNAKLPCFNGRVVSWLVSA

Variants of: B1
Experiment: abundance fitness (aPCA) (normalised: wild type 0, dead -1); higher = more abundant; growth selection in yeast, the domain comes from the species named
Details: Homo sapiens
In the case of GETKIIYHLDGQETPYLVKLWLPAERVTLADFKGVLQRPSYKFFFKSMDDDFGVVKEEISDDNAKLPCFNGRVVSWLVSA [P21W], the abundance fitness is reported as -0.712 ± 0.11.
Variant GETKIIYHLDGQETPYLVKLLLPAERVTLADFKGVLQRPSYKFFFKSMDDDFGVVKEEISDDNAKLPCFNGRVVSWLVSA [P21L] has an abundance fitness of -0.758 ± 0.088.
Variant GETKIIYHLDGQETPYLVKLKLPAERVTLADFKGVLQRPSYKFFFKSMDDDFGVVKEEISDDNAKLPCFNGRVVSWLVSA [P21K] has an abundance fitness of -0.449 ± 0.092.
GETKIIYHLDGQETPYLVKLYLPAERVTLADFKGVLQRPSYKFFFKSMDDDFGVVKEEISDDNAKLPCFNGRVVSWLVSA [P21Y] showed an abundance fitness of -0.693 ± 0.2.
In the case of GETKIIYHLDGQETPYLVKLNLPAERVTLADFKGVLQRPSYKFFFKSMDDDFGVVKEEISDDNAKLPCFNGRVVSWLVSA [P21N], the abundance fitness is reported as 0.003 ± 0.091.
For GETKIIYHLDGQETPYLVKLRLPAERVTLADFKGVLQRPSYKFFFKSMDDDFGVVKEEISDDNAKLPCFNGRVVSWLVSA [P21R], the abundance fitness was -0.575 ± 0.066.
Work on GETKIIYHLDGQETPYLVKLSLPAERVTLADFKGVLQRPSYKFFFKSMDDDFGVVKEEISDDNAKLPCFNGRVVSWLVSA [P21S] yielded an abundance fitness of -0.313 ± 0.069.
With GETKIIYHLDGQETPYLVKLVLPAERVTLADFKGVLQRPSYKFFFKSMDDDFGVVKEEISDDNAKLPCFNGRVVSWLVSA [P21V] the abundance fitness was -0.789 ± 0.087.
With GETKIIYHLDGQETPYLVKLTLPAERVTLADFKGVLQRPSYKFFFKSMDDDFGVVKEEISDDNAKLPCFNGRVVSWLVSA [P21T] the abundance fitness was -0.592 ± 0.1.
Variant GETKIIYHLDGQETPYLVKLQLPAERVTLADFKGVLQRPSYKFFFKSMDDDFGVVKEEISDDNAKLPCFNGRVVSWLVSA [P21Q] has an abundance fitness of -0.269 ± 0.084.
GETKIIYHLDGQETPYLVKLMLPAERVTLADFKGVLQRPSYKFFFKSMDDDFGVVKEEISDDNAKLPCFNGRVVSWLVSA [P21M] gave an abundance fitness of -0.426 ± 0.091.
GETKIIYHLDGQETPYLVKLPLPAGRVTLADFKGVLQRPSYKFFFKSMDDDFGVVKEEISDDNAKLPCFNGRVVSWLVSA [E25G] gave an abundance fitness of -0.096 ± 0.048.
Work on GETKIIYHLDGQETPYLVKLPLPAARVTLADFKGVLQRPSYKFFFKSMDDDFGVVKEEISDDNAKLPCFNGRVVSWLVSA [E25A] yielded an abundance fitness of -0.252 ± 0.07.
GETKIIYHLDGQETPYLVKLPLPACRVTLADFKGVLQRPSYKFFFKSMDDDFGVVKEEISDDNAKLPCFNGRVVSWLVSA [E25C] showed an abundance fitness of -0.035 ± 0.083.
Variant GETKIIYHLDGQETPYLVKLPLPAFRVTLADFKGVLQRPSYKFFFKSMDDDFGVVKEEISDDNAKLPCFNGRVVSWLVSA [E25F] has an abundance fitness of -0.913 ± 0.22.
Work on GETKIIYHLDGQETPYLVKLPLPDERVTLADFKGVLQRPSYKFFFKSMDDDFGVVKEEISDDNAKLPCFNGRVVSWLVSA [A24D] yielded an abundance fitness of -0.54 ± 0.15.
Work on GETKIIYHLDGQETPYLVKLPLPTERVTLADFKGVLQRPSYKFFFKSMDDDFGVVKEEISDDNAKLPCFNGRVVSWLVSA [A24T] yielded an abundance fitness of -0.51 ± 0.11.
GETKIIYHLDGQETPYLVKLPLPSERVTLADFKGVLQRPSYKFFFKSMDDDFGVVKEEISDDNAKLPCFNGRVVSWLVSA [A24S] gave an abundance fitness of -0.03 ± 0.056.
In the case of GETKIIYHLDGQETPYLVKLPLPPERVTLADFKGVLQRPSYKFFFKSMDDDFGVVKEEISDDNAKLPCFNGRVVSWLVSA [A24P], the abundance fitness is reported as 0.17 ± 0.062.
For GETKIIYHLDGQETPYLVKLPLPKERVTLADFKGVLQRPSYKFFFKSMDDDFGVVKEEISDDNAKLPCFNGRVVSWLVSA [A24K], the abundance fitness was -0.174 ± 0.1.
In the case of GETKIIYHLDGQETPYLVKLPLPFERVTLADFKGVLQRPSYKFFFKSMDDDFGVVKEEISDDNAKLPCFNGRVVSWLVSA [A24F], the abundance fitness is reported as -0.549 ± 0.15.
Work on GETKIIYHLDGQETPYLVKLPLPCERVTLADFKGVLQRPSYKFFFKSMDDDFGVVKEEISDDNAKLPCFNGRVVSWLVSA [A24C] yielded an abundance fitness of -0.107 ± 0.088.
In the case of GETKIIYHLDGQETPYLVKLPLPEERVTLADFKGVLQRPSYKFFFKSMDDDFGVVKEEISDDNAKLPCFNGRVVSWLVSA [A24E], the abundance fitness is reported as -0.415 ± 0.087.
GETKIIYHLDGQETPYLVKLPLPWERVTLADFKGVLQRPSYKFFFKSMDDDFGVVKEEISDDNAKLPCFNGRVVSWLVSA [A24W] showed an abundance fitness of -0.235 ± 0.08.
Work on GETKIIYHLDGQETPYLVKLPLPIERVTLADFKGVLQRPSYKFFFKSMDDDFGVVKEEISDDNAKLPCFNGRVVSWLVSA [A24I] yielded an abundance fitness of -0.431 ± 0.18.
In the case of GETKIIYHLDGQETPYLVKLPLPMERVTLADFKGVLQRPSYKFFFKSMDDDFGVVKEEISDDNAKLPCFNGRVVSWLVSA [A24M], the abundance fitness is reported as -0.546 ± 0.15.
GETKIIYHLDGQETPYLVKLPLPHERVTLADFKGVLQRPSYKFFFKSMDDDFGVVKEEISDDNAKLPCFNGRVVSWLVSA [A24H] showed an abundance fitness of -0.505 ± 0.17.
GETKIIYHLDGQETPYLVKLPLPVERVTLADFKGVLQRPSYKFFFKSMDDDFGVVKEEISDDNAKLPCFNGRVVSWLVSA [A24V] showed an abundance fitness of -0.42 ± 0.074.
With GETKIIYHLDGQETPYLVKLPLPRERVTLADFKGVLQRPSYKFFFKSMDDDFGVVKEEISDDNAKLPCFNGRVVSWLVSA [A24R] the abundance fitness was -0.492 ± 0.062.
For GETKIIYHLDGQETPYLVKLPLPLERVTLADFKGVLQRPSYKFFFKSMDDDFGVVKEEISDDNAKLPCFNGRVVSWLVSA [A24L], the abundance fitness was -0.356 ± 0.063.
In the case of GETKIIYHLDGQETPYLVKLPLPGERVTLADFKGVLQRPSYKFFFKSMDDDFGVVKEEISDDNAKLPCFNGRVVSWLVSA [A24G], the abundance fitness is reported as -0.168 ± 0.048.
With GETKIIYHLDGQETPYLVKLPLPNERVTLADFKGVLQRPSYKFFFKSMDDDFGVVKEEISDDNAKLPCFNGRVVSWLVSA [A24N] the abundance fitness was -0.415 ± 0.15.
Work on GETKIIYHLDGQETPYLVKLPLPQERVTLADFKGVLQRPSYKFFFKSMDDDFGVVKEEISDDNAKLPCFNGRVVSWLVSA [A24Q] yielded an abundance fitness of -0.074 ± 0.084.
Work on GETKIIYHLDGQETPYLVKLPLPYERVTLADFKGVLQRPSYKFFFKSMDDDFGVVKEEISDDNAKLPCFNGRVVSWLVSA [A24Y] yielded an abundance fitness of -0.325 ± 0.15.
